{"source": "paper PMC3770571", "key": {"[1]": {"biological_target": "endogenous LANA of KSHV infected PEL cells (KSHV (HHV8) (endogenous in BCBL1, JSC1, BC3)) (UniProt Q9QR71)", "sequence (Q9QR71 whole entry)": "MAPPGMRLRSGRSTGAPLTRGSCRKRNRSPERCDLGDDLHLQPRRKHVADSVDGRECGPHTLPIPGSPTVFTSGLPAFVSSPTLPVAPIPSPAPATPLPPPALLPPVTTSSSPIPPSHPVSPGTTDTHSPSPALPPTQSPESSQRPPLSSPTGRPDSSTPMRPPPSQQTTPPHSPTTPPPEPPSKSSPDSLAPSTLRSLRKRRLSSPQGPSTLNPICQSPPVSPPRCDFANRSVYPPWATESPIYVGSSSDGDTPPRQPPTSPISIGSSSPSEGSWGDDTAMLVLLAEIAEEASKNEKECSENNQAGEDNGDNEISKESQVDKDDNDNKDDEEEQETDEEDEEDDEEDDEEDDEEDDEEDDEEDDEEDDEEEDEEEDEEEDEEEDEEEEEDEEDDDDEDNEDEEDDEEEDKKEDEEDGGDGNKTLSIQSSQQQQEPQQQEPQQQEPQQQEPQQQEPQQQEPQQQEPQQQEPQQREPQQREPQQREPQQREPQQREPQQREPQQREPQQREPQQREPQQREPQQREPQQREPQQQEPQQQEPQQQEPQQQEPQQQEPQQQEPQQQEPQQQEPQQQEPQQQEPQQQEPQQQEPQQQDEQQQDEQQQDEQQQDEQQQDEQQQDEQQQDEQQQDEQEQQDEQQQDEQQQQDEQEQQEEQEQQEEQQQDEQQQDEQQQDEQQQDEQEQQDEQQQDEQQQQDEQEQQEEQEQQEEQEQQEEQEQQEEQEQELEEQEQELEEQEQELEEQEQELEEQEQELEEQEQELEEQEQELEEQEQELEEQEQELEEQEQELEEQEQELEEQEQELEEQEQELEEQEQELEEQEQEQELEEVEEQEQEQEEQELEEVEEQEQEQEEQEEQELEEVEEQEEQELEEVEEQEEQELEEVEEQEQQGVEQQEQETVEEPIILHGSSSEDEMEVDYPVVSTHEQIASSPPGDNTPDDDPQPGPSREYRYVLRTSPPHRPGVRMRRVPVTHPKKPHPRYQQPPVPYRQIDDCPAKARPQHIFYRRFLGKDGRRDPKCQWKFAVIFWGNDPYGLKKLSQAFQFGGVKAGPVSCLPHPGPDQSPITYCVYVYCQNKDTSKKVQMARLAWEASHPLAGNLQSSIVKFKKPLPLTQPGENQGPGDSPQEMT", "experiment": "co-IP"}, "[2]": {"biological_target": "endogenous LANA of KSHV infected PEL cells (KSHV (HHV8) (endogenous in BCBL1, JSC1, BC3)) (UniProt Q9QR71)", "experiment": "co-IP; lysate of 30 million BCBL1 cells treated with 2 U micrococcal nuclease (mononucleosomes), anti-LANA IP"}}, "data": [{"substance": "endogenous histone H1 of human cells (from UniProt P16403 1-213) (natural protein)", "values": [{"measurement": "relative density of the co-precipitated band (input set at 10%)", "setting": "[1]", "value": 30, "unit": "%"}, {"measurement": "relative density of the co-precipitated band (input set at 10%)", "setting": "[2]", "value": 10, "unit": "%"}]}]}
